Reference: US20110200552A1

What was measured:
[1] = target: death receptor 5 (DR5, TRAIL-R2) on cells (UniProt O14763); test: cell-based or functional assay
rhTRAIL variant D218Y = test: competitive ELISA, soluble DR5-Ig varied, immobilised DR4-Ig
rhTRAIL variant D218H = test: as above
[2] = target: death receptor 4 (DR4, TRAIL-R1) on cells (UniProt O00220); test: cell-based or functional assay

Sequence of WT rhTRAIL (TRAIL amino acids 114-281 preceded by a methionine) (ligand) (P50591 114-281): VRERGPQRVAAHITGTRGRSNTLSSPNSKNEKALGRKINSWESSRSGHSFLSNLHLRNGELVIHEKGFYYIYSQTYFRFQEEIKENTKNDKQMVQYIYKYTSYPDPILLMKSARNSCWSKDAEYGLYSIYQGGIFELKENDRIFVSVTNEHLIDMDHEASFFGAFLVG

fold less efficient in achieving 50% reduction of binding, against rhTRAIL WT (rhTRAIL variant D218Y) [fold]	fold less efficient in achieving 50% reduction of binding, against rhTRAIL WT (rhTRAIL variant D218H) [fold]	Substance	apoptosis (Annexin V positivity) in Colo205 cells [1] [ng/mL]	apoptosis (Annexin V staining) in EM-2 cells, 24 h; fold lower concentration than WT [2] [fold]	apoptosis (Annexin V staining) in ML-1 cells, 24 h; fold lower concentration than WT [2] [fold]
–	–	WT rhTRAIL (TRAIL amino acids 114-281 preceded by a methionine) (ligand)	20	–	–
> 9	> 9	DR5-Ig receptor chimera (from UniProt O14763 56-182) (Fc fusion)	–	–	–
–	–	rhTRAIL variant R149I (ligand)	–	5	2
–	–	rhTRAIL variant S215D (ligand)	–	5	2
